# In patent US8889130B2, “Treatment of osteoarthritis and pain” (Abbvie Inc., priority 2011, dated 2014):
# B1: 10G11: mouse anti-mouse IL-1β monoclonal antibody (clone 10G11) from IL-1α/β double KO mice (antibody, V domains shown)
# VH: EVQLQQSGPELVKPGTSVKMSCKTSGYTFTSYVMHWVKQKPGQGLEWIGYIIPYNDNTKYNEKFKGKATLTSDKSSSTAYMELSSLTSEDSAVYYCARRNEYYGSSFFDYWGQGTTLTVSS
# VL: DIQMTQSPASLSASVGETVTITCRGSGILHNYLVWYQQKQGKSPQLLVYSAKILADGVPSRFSGSGSGTQYSLKINSLQPEDFGSYYCQHFWSTPFTFGSGTKLEIKR
# modifications: heavy chain variable domain of 10G11; light chain variable domain of 10G11
# notes: mouse anti-mouse IL-1β monoclonal antibody (clone 10G11) from IL-1α/β double KO mice
# Legend:
# [1] = test system: Male SV129 mice; test: Destabilization of medial meniscus (DMM) model of osteoarthritis, cartilage degeneration (Chambers scores); format: in vivo, mouse; settings: Example 3.3.6 (FIG. 7); 8 weeks; mAbs 6 mg/kg alone or in combination
# Description: (§1) Male SV129 mice weighing approximately 30 grams, housed 5/cage, were anesthetized on Day 0 with ketamine/xylazine cocktail, administered intraperitoneally (ip), and then the medial collateral ligament was exposed by blunt dissection, and transected to reflect the meniscus toward the femur. The joint space was closed with 8-0 vicryl suture. The skin was closed with wound glue. For sham surgeries, a vertical skin incision was made over the medial aspect of the knee and the joint capsule was opened. The capsule was closed with 8-0 vicryl suture and the skin was closed with wound glue. Groups of animals were then treated with intraperitoneal (ip) injections of antibody or vehicle according to the study design table below. Two sex-matched, age-matched, and strain-matched naïve mice were also included in the study. Animals were euthanized after 8 weeks of treatment, and knee joints were harvested in 10% neutral buffered formalin.
# Formalin-fixed samples were decalcified, and specimens were sectioned in the frontal plane into 15 step sections each. Each section was approximately 6 μm thick, and step sections were separated by 70 μm. All slides were stained with toluidine blue (T. Blue). Slides were assessed according to the Chambers method (Chambers et al. (2001) Arthritis Rheum 44:1455-65) for cartilage degeneration (see below) by a board-certified veterinary pathologist. Each of the four cartilage surfaces, the medial femoral condyle (MFC), the medial tibial plateau (MTP), the lateral femoral condyle (LFC), and the lateral tibial plateau (LTP), was scored from 0-6 according to the scale in the table below.
# as §1, with “8-0 vicryl suture, and the” for “8-0 vicryl suture and the”, “injections of anti-mIL-1α monoclonal antibody, anti-mIL-1β (alone or in combination), mIL-1α/βDVD-Ig binding protein, or vehicle” for “injections of antibody or vehicle”, “design table below (Table 24). Animals were” for “design table below. Two sex-matched, age-matched, and strain-matched naïve mice were also included in the study. Animals were”, “weeks of treatment and knee” for “weeks of treatment, and knee”
# Male SV129 mice weighing approximately 30 grams had the medial collateral ligament exposed by blunt dissection, and transected to reflect the meniscus toward the femur. The joint space was closed with 8-0 vicryl suture. The skin was closed with wound glue. For sham surgeries, a vertical skin incision was made over the medial aspect of the knee and the joint capsule was opened. The capsule was closed with 8-0 vicryl suture, and the skin was closed with wound glue. Groups of animals were then treated per os (po) or via intraperitoneal (ip) injections of vehicle or treatments according to the study design table below. Three sex-matched, age-matched, and strain-matched naïve mice were also included in the study. Animals were euthanized after 4 weeks of treatment, and knee joints were harvested in 10% neutral buffered formalin.
# [2] = test system: male Swiss Webster mice; test: Joint instability model (JIM) of osteoarthritis, cartilage degeneration histology; format: in vivo, mouse; settings: Example 3.3.3 (FIG. 4); 21 day study; anti-IL-1β mAb 3, 6, 12 mg/kg; combination 6 mg/kg each
# Protocol: The design of study of the in vivo activity of a mIL-1α/β DVD-Ig molecule in the joint instability model (JIM) of osteoarthritis in mice is shown in Table 19. All groups contained 25 mice (n=25), weighing approximately 30 grams (BW=30 g). The study was terminated after 21 days. Two and a half month old, male Swiss Webster mice (25/group/time point), housed 5/cage, were anesthetized with isoflurane anesthesia. Anterior cruciate ligament (ACL) trauma was administered on the right and left knees on day 0 in an attempt to induce OA lesions. Intraperitoneal (ip) treatments with IL-1 inhibitory antibodies IL-1α (9H10) and IL-1β (10G11), alone and in combination, were initiated the day of ACL trauma and continued every 4th day (q4d) for 20 days. The vehicle for the non-treatment control was PBS. Right and left knees were harvested on day 21, and histopathologic alterations were scored and characterized. Data were analyzed using only joints that had proliferative responses indicative of successful instability induction. The proliferative response/instability was scored 0-3, and only unstable joints (scores of 1, 2, or 3) were used in the final analysis. Medial and lateral femoral and tibial cartilage degeneration was scored for severity of cartilage degeneration on a scale 0-5. Four days after the last antibody dose, blood was drawn from all animals from each group for serum harvest. Body weights were recorded weekly. […]
# Following 2-3 days in a decalcifying fixative (Surgipath Decalifier, Surgipath Medical Ind., Inc., Richmond Va.), both knee joints were trimmed of extraneous tissue, embedded in the frontal plane and sectioned. […] Slides were examined by a board-certified veterinary pathologist blinded to study group designation, and were scored according to the method below. […]
# Medial and lateral femoral and tibial cartilage degeneration were scored for severity of cartilage degeneration using the following system: Depth/extent of chondrocyte and proteoglycan loss with fibrillation: […]
# The design of this study was similar to that described above in Example 3.3.1. […] Body weights were recorded weekly. […]
molecule,measurement,setting,value
B1,mean sum Chambers scores and mean maximum Chambers scores (cartilage degeneration),[1],not statistically significant
same,preventing cartilage degradation (medial tibial cartilage degeneration scores),[2],not effective in preventing cartilage degradation at any dose tested
